From article PMC7229824 (Nucleic Acids Research, 2020)

Target: GST-PCAF (human, UniProt Q92831 1-832)
Test: pull-down

GST-PCAF, sequence (Q92831 whole entry): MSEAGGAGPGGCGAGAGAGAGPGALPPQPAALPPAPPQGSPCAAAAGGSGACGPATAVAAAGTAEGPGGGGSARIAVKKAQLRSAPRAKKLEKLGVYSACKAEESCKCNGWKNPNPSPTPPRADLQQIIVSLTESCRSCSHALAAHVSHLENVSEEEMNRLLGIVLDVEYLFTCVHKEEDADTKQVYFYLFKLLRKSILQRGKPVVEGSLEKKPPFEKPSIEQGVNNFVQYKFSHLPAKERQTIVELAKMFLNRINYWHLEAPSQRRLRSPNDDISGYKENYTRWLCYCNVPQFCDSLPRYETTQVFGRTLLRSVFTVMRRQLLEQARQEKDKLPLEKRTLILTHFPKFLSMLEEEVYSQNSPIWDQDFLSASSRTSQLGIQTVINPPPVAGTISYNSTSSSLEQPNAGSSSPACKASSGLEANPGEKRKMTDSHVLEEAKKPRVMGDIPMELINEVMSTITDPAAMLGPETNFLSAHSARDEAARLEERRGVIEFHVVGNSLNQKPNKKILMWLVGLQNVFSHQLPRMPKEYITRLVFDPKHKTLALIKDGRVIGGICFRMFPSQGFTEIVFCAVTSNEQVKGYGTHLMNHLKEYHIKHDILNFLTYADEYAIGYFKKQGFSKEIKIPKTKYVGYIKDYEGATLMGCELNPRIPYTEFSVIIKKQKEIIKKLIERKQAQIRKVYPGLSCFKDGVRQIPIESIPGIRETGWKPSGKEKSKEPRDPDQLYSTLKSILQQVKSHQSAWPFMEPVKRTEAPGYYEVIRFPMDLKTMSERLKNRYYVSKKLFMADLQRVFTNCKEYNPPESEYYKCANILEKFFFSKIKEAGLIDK

B1: His-HMGA2 (natural protein)
chain: MSARGEGAGQPSTSAQGQPAAPAPQKRGRGRPRKQQQEPTGEPSPKRPRGRPKGSKNKSPSKAAQKKAEATGEKRPRGRPRKWPQQVVQKKPAQEETEETSSQESAEED
B1: binds.
